Results from article PMC7144518, “Tumor-derived soluble CD155 inhibits DNAM-1–mediated antitumor activity of natural killer cells” (The Journal of Experimental Medicine, 2020).
Each block holds one binder with its values, some of them ahead of it.

Experiments:
[1] = molecular target: T1, extracellular portion of human CD155 tagged with His protein at the C terminus (human, UniProt P15151 21-343); test: BLI; His-tagged recombinant CD155 (20 µg/ml) loaded on a Ni-NTA biosensor; Fc fusion proteins as analytes at three concentrations; kinetics buffer; association 120 s, dissociation 120 s; global mode of BLItz; conditions: both partners purified
T1 construct: human CD155 (poliovirus receptor, nectin-like protein-5), extracellular portion; R&D Systems"); also called sCD155-His; human His-tagged sCD155; source: bought: R&D Systems; not shown: His, C-terminal, kept
T1 sequence (looked up): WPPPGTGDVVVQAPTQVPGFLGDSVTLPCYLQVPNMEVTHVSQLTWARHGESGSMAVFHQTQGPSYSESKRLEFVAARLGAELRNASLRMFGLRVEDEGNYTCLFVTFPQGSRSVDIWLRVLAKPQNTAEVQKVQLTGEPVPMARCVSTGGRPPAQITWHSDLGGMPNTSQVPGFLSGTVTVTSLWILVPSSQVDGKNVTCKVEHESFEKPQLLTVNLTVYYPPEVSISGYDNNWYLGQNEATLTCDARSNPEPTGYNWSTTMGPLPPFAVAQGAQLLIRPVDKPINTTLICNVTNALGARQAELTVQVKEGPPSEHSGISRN

[2] = molecular target: T2, extracellular portion of human CD155 tagged with His protein at the C terminus (human, UniProt P15151 21-343); test: BLI
T2 chain: T1 sequence (looked up)

[3] = molecular target: T3, extracellular portion of mouse CD155 tagged with His protein at the C terminus (mouse); test: BLI
T3 chain: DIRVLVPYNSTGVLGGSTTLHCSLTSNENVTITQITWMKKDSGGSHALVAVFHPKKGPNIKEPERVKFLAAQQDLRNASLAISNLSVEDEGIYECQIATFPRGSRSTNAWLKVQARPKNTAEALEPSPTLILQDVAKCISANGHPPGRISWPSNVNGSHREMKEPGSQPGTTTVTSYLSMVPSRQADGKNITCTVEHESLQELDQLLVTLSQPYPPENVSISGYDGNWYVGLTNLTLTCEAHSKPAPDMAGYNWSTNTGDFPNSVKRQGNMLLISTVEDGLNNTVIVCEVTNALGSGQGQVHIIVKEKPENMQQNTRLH

B1: human TIGIT Fc fusion protein (Fc fusion, UniProt Q495A1 22-141, looked up)
chain: MMTGTIETTGNISAEKGGSIILQCHLSSTTAQVTQVNWEQQDQLLAICNADLGWHISPSFKDRVAPGPGLGLTLQSLTVNDTGEYFCIYHTYPDGTYTGRIFLEVLESSVAEHGARFQIP
notes: human TIGIT, extracellular portion; source: bought: R&D Systems
binding result [1]: binds
Kd [2]: 15.2 nM

B2: human DNAM-1 Fc fusion protein (Fc fusion, UniProt Q15762 19-254, looked up)
chain: EEVLWHTSVPFAENMSLECVYPSMGILTQVEWFKIGTQQDSIAIFSPTHGMVIRKPYAERVYFLNSTMASNNMTLFFRNASEDDVGYYSCSLYTYPQGTWQKVIQVVQSDSFEAAVPSNSHIVSEPGKNVTLTCQPQMTWPVQAVRWEKIQPRQIDLLTYCNLVHGRNFTSKFPRQIVSNCSHGRWSVIVIPDVTVSDSGLYRCYLQASAGENETFVMRLTVAEGKTDNQYTLFVA
notes: human DNAM-1 (DNAX accessory molecule 1, CD226), extracellular portion; source: bought: R&D Systems
binding result [1]: binds
Kd [2]: 3.56 nM

B4: mouse TIGIT Fc fusion protein (Fc fusion)
chain: TIDTKRNISAEEGGSVILQCHFSSDTAEVTQVDWKQQDQLLAIYSVDLGWHVASVFSDRVVPGPSLGLTFQSLTMNDTGEYFCTYHTYPGGIYKGRIFLKVQESSDDRNGLAQFQTAPLG
Kd [3]: 22.4 nM

Other lines, results leading:

Kd [3]: 29.7 nM
B3: mouse CD96 Fc fusion protein (Fc fusion)
chain: VWEELFNVGDDVYALPGSDINLTCQTKEKNFLVQMQWSKVTDKNDMIALYHPQYGLYCGQEHACESQVAATETEKGVTNWTLYLRNISSALGGKYECIFTLYPEGIKTTVYNLIVEPYTQDEHNYTIEIETNRTLEIPCFQNTSSEIPPRFTFSWLVEKDGVEEVLFTHHHHVNNSTSFKGRIRLGGDYRLHLSPVQIQDDGRTFSCHLTVNPLKAWKMSTTVKVFAKPEILMTVENSTMDVLGERVFTCLLKNVFPKANITWFIDGRFLQGNEEGIYITNEEKNCSSGFWELKSVLTRMHSGPSQSNNMTAWCMALSPGPRNKMWNTSSQPITVSFDSVIAPTKHLPTVTGSTLGTQPFSDAGVSPTGYLATPSVTIVDENGLTPDATPQTSNSSMTTKDGNYLEASSGTDAKNSSRAAASSKSGSWPFPFTSPPEWHSLPGTSTGPQEPDSPVSWIPSEVHTSAPLDASLAPHDTIISTTTEFPNVLTTANGTTKIDHGPITSIIVNQPSDGM

Kd [3]: 8.83 nM
B5: mouse DNAM-1 Fc fusion protein (Fc fusion)
chain: EETLWDTTVRLSETMTLECVYPLTHNLTQVEWTKNTGTKTVSIAVYNPNHNMHIESNYLHRVHFLNSTVGFRNMSLSFYNASEADIGIYSCLFHAFPNGPWEKKIKVVWSDSFEIAAPSDSYLSAEPGQDVTLTCQLPRTWPVQQVIWEKVQPHQVDILASCNLSQETRYTSKYLRQTRSNCSQGSMKSILIIPNAMAADSGLYRCRSEAITGKNKSFVIRLIITDGGTNKHFILP
